Measured values as given in publication PMC13571933, “Active transport by cytoplasmic dynein sustains dendritic MAP2 localization in developing neurons” (The Journal of Biological Chemistry, 2026).
Each block holds one molecule with its values, some of them ahead of it.

Columns and labels:
[1] = biological target: GFP-MAP2C ΔSP (human MAP2C lacking the serine/proline-rich region), expressed in HEK293 cells (human) (UniProt P11137); assay: co-IP; anti-His antibody on Dynabeads Protein G; 500 μg lysate of HEK293 cells co-expressing DHC1 and GFP-His-MAP2C; 50 mM Hepes pH 7.4, 100 mM NaCl, 2 mM EDTA, 0.5% Triton X-100; 1 h at 4 °C; blot with anti-DHC1 and anti-GFP, bands quantified with ImageJ
[2] = biological target: T1, microtubules (MTs), endogenous in cultured rat hippocampal neurons (rat (endogenous in hippocampal neurons), UniProt Q4QRB4 1-450, Representative alpha/beta heterodimer of a microtubule polymer (many copies). Endogenous neuronal microtubules are a mixture of tubulin isotypes. The alpha member is not told in the paper (Tuba1a assu)); assay: FRAP fitted with a reaction-diffusion simulation; as a3 but with 40 μM MT binding sites assumed; details: partners not purified
[3] = biological target: T1, microtubules (MTs), endogenous in …; assay: FRAP fitted with a reaction-diffusion simulation; FRAP of GFP-MAP2C in living neurons; KD from the best fit of a VCell simulation; 75 μM MT binding sites, 25 μM GFP-MAP2C and 5 μM endogenous MAP2 assumed; kon set, koff adjusted; details: partners not purified

co-immunoprecipitated DHC1 normalized to immunoprecipitated GFP-MAP2C, relative to WT (relative to the WT condition (set to 1)) [1]: 0.45
Molecule: cytoplasmic dynein heavy chain 1 (DHC1), expressed from a plasmid in HEK293 cells, Q14204 1-4646

Kd [2]: 1 µM | Kd [3]: 4.5 µM
B1: GFP-MAP2C (human MAP2C tagged with AcGFP and 6xHis, wild type), expressed in cultured rat hippocampal neurons (natural protein, UniProt P11137-2 1-471, looked up)
chain: MADERKDEAKAPHWTSAPLTEASAHSHPPEIKDQGGAGEGLVRSANGFPYREDEEGAFGEHGSQGTYSNTKENGINGELTSADRETAEEVSARIVQVVTAEAVAVLKGEQEKEAQHKDQTAALPLAAEETANLPPSPPPSPASEQTVTVEEAAGGESALAPSVFKQAKDKVSDGVTKSPEKRSSLPRPSSILPPRRGVSGDRDENSFSLNSSISSSARRTTRSEPIRRAGKSGTSTPTTPGSTAITPGTPPSYSSRTPGTPGTPSYPRTPHTPGTPKSAILVPSEKKVAIIRTPPKSPATPKQLRLINQPLPDLKNVKSKIGSTDNIKYQPKGGQVQIVTKKIDLSHVTSKCGSLKNIRHRPGGGRVKIESVKLDFKEKAQAKVGSLDNAHHVPGGGNVKIDSQKLNFREHAKARVDHGAEIITQSPGRSSVASPRRLSNVSSSGSINLLESPQLATLAEDVTAALAKQGL
notes: MAP2C, low molecular weight isoform of human microtubule-associated protein 2; the 471-amino-acid isoform; Same construct as m1, other host; also called wild-type GFP-MAP2C; WT; source: cultured rat hippocampal neurons, transfected, in living cells; not shown: AcGFP, N-terminal, kept
